Experimental data as given in the supplement of paper PMC10567573.
± gives the standard deviation.

Experiment: protein stability index of a GFP-peptide fusion (GPS, HEK-293T) (PSI 1-6); higher = more stable
[1] = treatment: DMSO, c terminus: native
[2] = treatment: MLN4924 1 uM, 8 h, c terminus: native
[3] = treatment: DMSO, c terminus: a fixed tail appended
[4] = treatment: MLN4924 1 uM, 8 h, c terminus: a fixed tail appended
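Note: 24-mer peptide tiles fused after GFP, lentivirally expressed, FACS-sorted into six equal bins by GFP/DsRed ratio, decoded by Illumina sequencing, PSI is the read-weighted mean bin number.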

Sequence | protein stability index [1] | protein stability index [2] | protein stability index [3] | protein stability index [4]
RHCPLPQATFWGLVTPRSWSCHT [SOAT2] | 2.55 ± 0.64 | 2.44 ± 0.62 | – | –
RIHVGKKYGDIPRGIFVVRGENVV [LSM1] | – | – | 2.37 ± 0.17 | 2.24 ± 0.15
RIQIWFQNRRAKLKRSHRESQFLM [HESX1] | – | – | 2.43 ± 0.76 | 2.15 ± 0.67
RKSVPGPGNRTCTGTSKRYQLCRV [ADAMTSL2] | – | – | 2.91 ± 0.41 | 2.68 ± 0.093
RLAQVKRKILVLDLDETLIHSHHD [CTDNEP1] | – | – | 2.41 ± 0.73 | 2.58 ± 0.36
RLDYLNLKGARLTVEQGCQILDSL [FBXO39] | – | – | 3.25 ± 0.088 | 3.54 ± 0.22
RLKEMKLLRDQFVKALEDFEDLCD [FAM9B] | – | – | 2.27 ± 0.13 | 2.52 ± 0.38
RLLSDATVEKDESHAGKVVLRSWY [FAM50A] | – | – | 3.02 ± 0.11 | 3.26 ± 0.12
RLVDRDSVWGYDLGLRSLIPAVLT [MYORG] | – | – | 2.25 ± 0.54 | 2.28 ± 0.12
RLVSSPCCIVTSTYGWTANMERIM [HSP90AB1] | – | – | 2.86 ± 0.68 | 2.35 ± 0.33
RNLETQHKVLELTAENERLQKKVE [CEBPB] | – | – | 5.12 ± 0.57 | 5.49 ± 0.049
RNLRTQQEIEDKMKGFSFKEDTLL [C8orf76] | – | – | 4.11 ± 0.12 | 4.16 ± 0.19
RNSKASAYCLDQGAEDGDRAILYP [GALNT9] | – | – | 4.32 ± 0.3 | 4.4 ± 0.2
RPRRYVQPPEMIGPMRPEQFSDEV [GAGE1] | – | – | 3.86 ± 0.26 | 4.41 ± 0.32
RPTYFEMKNEKLLSKASEPKYQLF [RNF180] | – | – | 2.54 ± 0.28 | 2.78 ± 0.19
RQHIPDTYLCERCQPRNLDKERAV [KMT2E] | – | – | 2.81 ± 0.47 | 3.35 ± 0.15
RQNLSKSWLDVQVSNTYVKQKTSA [TPD52L3] | – | – | 3.83 ± 0.28 | 3.8 ± 0.25
RQQRLNQLEKPPEKEEDHAPEFIK [FAM107A] | – | – | 5.33 ± 0.15 | 5.34 ± 0.35
RQVQSLMVHQRKLEAELLQIEERH [SMARCE1] | – | – | 4 ± 0.12 | 4.23 ± 0.17
RQVVDILWSDPMAQEGCKANTIRG [PPEF2] | – | – | 3.14 ± 0.31 | 3.55 ± 0.38
RQYRSIEVLIGAGYSTPADIWSTA [SRPK2] | – | – | 1.9 ± 0.37 | 2 ± 0.44
RREEEERRRIEEERLRLEQQKQQI [ACBD3] | – | – | 5.35 ± 0.19 | 5.05 ± 0.41
RRGELRHITKLKPWSLFDVLVEKY [SRPK2] | – | – | 2.4 ± 0.53 | 2.12 ± 0.057

Sequence | protein stability index [1] | protein stability index [2] | protein stability index [3] | protein stability index [4]
RRGQEPLSALLQFGVTYLEDYSAE [BCL2L13] | – | – | 3.11 ± 0.3 | 3.17 ± 0.43
RRGVSDWDLRMKLHDRGAQVIHPQ [DNAAF3] | – | – | 3.58 ± 0.092 | 3.55 ± 0.35
RRKEYDALKAAKREQEKKPKKEAN [LRRC59] | – | – | 5.25 ± 0.15 | 5.17 ± 0.22
RRMTVVGRLEGLIQPDDLINQLTF [FAF2] | – | – | 2.36 ± 0.2 | 2.33 ± 0.49
RRRQRSEKKKAHYRQSSFPHCSDL [KCNA4] | – | – | 3.66 ± 0.16 | 3.98 ± 0.19
RRRRMETIVFLDKEVFASRISNPS [PCMTD2] | – | – | 2.57 ± 0.26 | 2.77 ± 0.38
RRRSRKKPSGALGSESYKSSAGSA [EHMT1] | – | – | 4.86 ± 0.32 | 5.3 ± 0.073
RRRWCPAGIMLLALVCLLSCLLPS [SPACA3] | – | – | 2.85 ± 0.55 | 2.77 ± 0.3
RSPIIDVKNDRDRVGHKSIPMRNL [SERPINB5] | – | – | 3.83 ± 0.13 | 4 ± 0.36
RSRGKVLKTKDGKLPFCAMGVSSV [CPOX] | – | – | 3.4 ± 0.2 | 3.15 ± 0.41
RTLSAFLCLGGLACLIVMFLPEKK [SLC22A15] | – | – | 3.25 ± 0.42 | 2.64 ± 0.36
RVFKARIYTNRYETNEEDKTLQEI [FBXO39] | – | – | 2.98 ± 0.34 | 3.43 ± 0.38
RVPQTWSKRLYGVYDNEKKLQLQL [PLD5] | – | – | 2.39 ± 0.32 | 2.31 ± 0.28
RWDPVRRRFIQSCPIIRIPNRFLR [KLHDC10] | – | – | 2.48 ± 0.42 | 2.49 ± 0.2
RYLFLDGDSHYEIEIVHISTVQIL [ZFYVE21] | – | – | 2.89 ± 0.26 | 2.61 ± 0.4
SALTFLRVDQDKDKDCSLDCAGSP [SMOC2] | – | – | 4.92 ± 0.42 | 5 ± 0.088
SAYISNYAFANVFHGWKYMFGLVI [SLC2A12] | – | – | 2.91 ± 0.38 | 2.9 ± 0.67
SDGGQKNKPREHIIDCGDIVWSLA [WSB1] | – | – | 3.07 ± 0.36 | 3.23 ± 0.21
SDGSCKTAGEMVFVYENAKEGARN [BTBD10] | – | – | 4.31 ± 0.18 | 4.48 ± 0.16
SDLPTPQAIEPQAIVQQVPAPSRM [SNX8] | – | – | 5.21 ± 0.11 | 5.13 ± 0.19
SDRFGRKKVYLTGFALDILFAIAN [SLC22A15] | – | – | 2.51 ± 0.64 | 2.17 ± 0.41
SDSGLSLDSSHSPSSLSSSEGSSS [NFE2L1] | – | – | 5.41 ± 0.23 | 5.34 ± 0.17
SEFHPHHCNLFVYSSSKGSLRLCD [PPP2R2C] | – | – | 2.23 ± 0.16 | 2.27 ± 0.26

Sequence | protein stability index [1] | protein stability index [2] | protein stability index [3] | protein stability index [4]
SEVSCKKRDDYLEWPEYFMAVAFL [DCTD] | – | – | 2.15 ± 0.48 | 2.16 ± 0.26
SGCDKEALLTGGGSENRNHRLLNM [RNF180] | – | – | 3.58 ± 0.28 | 3.86 ± 0.29
SGEELHELFHTIDTHNTNNLDTEE [NECAB1] | – | – | 5.12 ± 0.6 | 5.08 ± 0.68
SGFLKEMACPYSVLISGDIKDRLK [FAM98B] | – | – | 2.38 ± 0.49 | 2.52 ± 0.18
SGRLSASWEPLSGPSTPSPVAAQF [FCHO1] | – | – | 3.14 ± 0.25 | 3.02 ± 0.23
SHEANKLQDMLDGFIKKFVLCPEC [EIF5] | – | – | 2.49 ± 0.74 | 2.65 ± 0.38
SHTLEERVVHWYFKLLDKNSSGDI [SMOC2] | – | – | 2.44 ± 0.36 | 2.03 ± 0.21
SIIHQMEKFSSSLHELSSRVEASH [FBF1] | – | – | 2.72 ± 0.21 | 2.96 ± 0.2
SITSKPATLTTTSATSKLIHPDED [ZNF207] | – | – | 5.31 ± 0.26 | 5.44 ± 0.28
SKKGLSFFAFEHSEEYQQAQHKFL [TCF25] | – | – | 2.85 ± 0.21 | 3 ± 0.15
SLKAKVSDNMSHLMVDFAQERQML [FSD1] | – | – | 3.33 ± 0.22 | 3.31 ± 0.31
SLLQPVTPLGTSRWRKISAALPY [NCF4] | 2.54 ± 0.27 | 2.24 ± 0.28 | – | –
SLPTTAPSNSSSLTLSGIKEDNSL [MYBL2] | – | – | 4.91 ± 0.17 | 5.2 ± 0.13
SLRSYLKRRGPQRSVDVVVSSVFL [PHTF1] | – | – | 2.48 ± 0.32 | 2.09 ± 0.24
SLTNDWEDHLAVKHFSVEGQLEFR [HSP90AB1] | – | – | 3.49 ± 0.23 | –
SMKHTATARFQRNHRLISEILSES [SMARCE1] | – | – | 2.95 ± 0.12 | 3.24 ± 0.5
SMPRINHGVLSAEGFLFVFGGQDE [GAN] | – | – | 3.05 ± 0.41 | 2.88 ± 0.72
SMQCKVILLDGSEYTCDVEKRSRG [EPB41L3] | – | – | 3.04 ± 0.29 | 3.61 ± 0.3
SNRWLMVKIFLILIVFFIIFVVFL [STX5] | – | – | 3.38 ± 0.24 | 3.45 ± 0.32
SNTLGFGTEQAPYGMQTQNYPKGG [ETS2] | – | – | 4.29 ± 0.26 | 4.2 ± 0.28
SPAQQVPKNPALEAFLAQFSQLED [TOR1AIP2] | – | – | 4.26 ± 0.45 | 4.38 ± 0.31
SPFTNLLNGSSQPTTRNYPELNNN [CDC14A] | – | – | 4.04 ± 0.1 | 4.26 ± 0.16
SPPKSPRTTVHDKSAHQTHSSWTP [DNAJC4] | – | – | 4.36 ± 0.15 | 4.41 ± 0.2

Sequence | protein stability index [1] | protein stability index [2] | protein stability index [3] | protein stability index [4]
SPRGPAPGEEKFENLEGVPSVCSE [ZNF263] | – | – | 5.41 ± 0.39 | 5.44 ± 0.29
SPTGLSPYLRFGCLSCRLFYFKLT [CRY1] | – | – | 1.84 ± 0.27 | 2.14 ± 0.43
SQEREGLLIVKLEEDCAWSQELPP [ZNF263] | – | – | 3.72 ± 0.068 | 3.89 ± 0.18
SQESALGNTVPAVEPGTPPLDILA [DNAAF3] | – | – | 5.17 ± 0.15 | 5.14 ± 0.12
SQNSSLVQHERIHTGDKPYKCAEC [ZNF8] | – | – | 4.58 ± 0.29 | 4.82 ± 0.28
SQVMGSGRGSLSSGGQTSWDSGCL [PLEKHN1] | – | – | 4.02 ± 0.14 | 3.98 ± 0.13
SREFFNRRGELRHITKLKPWSLFD [SRPK2] | – | – | 2.56 ± 0.07 | 2.9 ± 0.32
SRETQRTPMNHQKAVNDETCKASH [FBXO34] | – | – | 5.06 ± 0.09 | 5.17 ± 0.19
SRHVTTRAALTYTSLEITILTSQP [M1AP] | – | – | 2.63 ± 0.51 | 2.6 ± 0.65
SRLVKYPLLLKEILKHTPKEHPDV [NET1] | – | – | 2.71 ± 0.18 | 2.92 ± 0.32
SRPAVGPPQPGCPAFIIVKLSPLR [ZSWIM9] | – | – | 2.59 ± 0.19 | 2.33 ± 0.15
SRQGSAEALRALQEGLWLDRGTRV [PKD2L1] | – | – | 3.6 ± 0.37 | 3.28 ± 0.27
SRRIPSTDANLPSGGKGFKLRRQP [RAB22A] | – | – | 4.09 ± 0.18 | 4.25 ± 0.23
SRRVLLTNVVTGHRQSFGTNSDVL [DCAF4] | – | – | 2.87 ± 0.28 | 3.04 ± 0.26
SRVILEIDNARLAADDFRLKYENE [KRT15] | – | – | 3.62 ± 0.4 | 3.7 ± 0.15
SSDGSNFGWETKIKAWMDRYEEAN [KMT2E] | – | – | 3.79 ± 0.18 | 3.83 ± 0.15
SSHMNIDITDDCICDLARSIDFNK [PPEF2] | – | – | 3.67 ± 0.35 | 3.89 ± 0.19
SSLRRQFEFSVDSFQIVLDPMLDF [TENT5D] | – | – | 2.41 ± 0.32 | 2.17 ± 0.25
SSPSVSGPRRLVSCLSSQSSALSQ [SPACA3] | – | – | 3.4 ± 0.27 | 3.52 ± 0.35
SSRVIAASYDKTVRAWDLETGKLL [WDR88] | – | – | 2.76 ± 0.39 | 3.04 ± 0.29
